Experiment [1] concerns the target T1, rat TLR7-Flag, expressed in HEK293 cells (rat, UniProt P58681 27-1050 (mouse entry)).
T1 construct: not shown: Flag tag
T1 chain: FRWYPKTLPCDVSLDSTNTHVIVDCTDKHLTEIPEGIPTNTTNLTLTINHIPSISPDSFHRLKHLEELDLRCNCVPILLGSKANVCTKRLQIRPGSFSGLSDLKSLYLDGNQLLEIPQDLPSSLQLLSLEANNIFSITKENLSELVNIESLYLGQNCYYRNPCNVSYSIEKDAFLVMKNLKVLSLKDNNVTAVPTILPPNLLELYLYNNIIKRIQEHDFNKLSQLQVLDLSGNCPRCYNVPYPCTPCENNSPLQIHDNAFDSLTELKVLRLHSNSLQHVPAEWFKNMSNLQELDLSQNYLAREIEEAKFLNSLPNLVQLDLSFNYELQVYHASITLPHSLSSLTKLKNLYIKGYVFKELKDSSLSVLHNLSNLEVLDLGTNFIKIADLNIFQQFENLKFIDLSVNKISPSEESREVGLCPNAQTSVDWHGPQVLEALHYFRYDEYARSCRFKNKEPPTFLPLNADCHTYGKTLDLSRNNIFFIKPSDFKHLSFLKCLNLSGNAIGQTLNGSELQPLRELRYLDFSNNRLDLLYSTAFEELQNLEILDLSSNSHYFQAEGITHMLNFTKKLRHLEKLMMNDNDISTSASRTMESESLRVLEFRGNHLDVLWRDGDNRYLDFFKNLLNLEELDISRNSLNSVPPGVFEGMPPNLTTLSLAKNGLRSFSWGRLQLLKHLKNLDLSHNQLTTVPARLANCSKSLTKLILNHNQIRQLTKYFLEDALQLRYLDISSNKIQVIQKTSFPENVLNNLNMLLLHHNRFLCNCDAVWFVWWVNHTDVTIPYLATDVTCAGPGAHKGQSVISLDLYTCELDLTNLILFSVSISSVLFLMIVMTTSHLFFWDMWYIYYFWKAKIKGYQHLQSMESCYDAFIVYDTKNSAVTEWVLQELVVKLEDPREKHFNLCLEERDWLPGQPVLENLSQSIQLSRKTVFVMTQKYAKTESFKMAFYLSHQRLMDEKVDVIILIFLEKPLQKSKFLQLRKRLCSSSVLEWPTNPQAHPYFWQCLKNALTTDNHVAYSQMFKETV
Kind of experiment: flow cytometry on fixed and permeabilised HEK293 cells expressing rat TLR7-Flag. The source says: (§1) The HEK293 cells expressing human TLR7 (variant 1)-Flag prepared in 8)-1, the HEK293 cells expressing human TLR7 (variant 2)-Flag prepared in 8)-2, the HEK293 cells expressing monkey TLR7-Flag prepared in 8)-3, the HEK293 cells expressing mouse TLR7-Flag prepared in 8)-4, and the HEK293 cells expressing rat TLR7-Flag prepared in 8)-5 were immobilized/subjected to membrane permeation with a Fixation and Permeabilization Solution (Becton, Dickinson and Company) and thereafter stained using huAT01_H3L2_IgG1LALA, which is one of the humanized anti-human TLR7 antibodies, and ALEXA FLUOR® 647 AffiniPure Goat anti-human IgG+IgM (H+L) (Jackson ImmunoResearch Inc.), which is the secondary antibody.
(§2) The binding of the humanized anti-human TLR7 antibody to human TLR7 was detected based on flow cytometry (Miltenyi Biotec K.K.), and the data was analyzed using software (Flowjo) which analyzes the data of flow cytometry.
On the technique in general: In flow cytometry, cells or beads pass a laser one at a time.

Experiment [2] addresses T2, mouse TLR7-Flag, expressed in HEK293 cells (mouse, UniProt P58681 27-1050).
T2 construct: not shown: Flag tag
T2 sequence: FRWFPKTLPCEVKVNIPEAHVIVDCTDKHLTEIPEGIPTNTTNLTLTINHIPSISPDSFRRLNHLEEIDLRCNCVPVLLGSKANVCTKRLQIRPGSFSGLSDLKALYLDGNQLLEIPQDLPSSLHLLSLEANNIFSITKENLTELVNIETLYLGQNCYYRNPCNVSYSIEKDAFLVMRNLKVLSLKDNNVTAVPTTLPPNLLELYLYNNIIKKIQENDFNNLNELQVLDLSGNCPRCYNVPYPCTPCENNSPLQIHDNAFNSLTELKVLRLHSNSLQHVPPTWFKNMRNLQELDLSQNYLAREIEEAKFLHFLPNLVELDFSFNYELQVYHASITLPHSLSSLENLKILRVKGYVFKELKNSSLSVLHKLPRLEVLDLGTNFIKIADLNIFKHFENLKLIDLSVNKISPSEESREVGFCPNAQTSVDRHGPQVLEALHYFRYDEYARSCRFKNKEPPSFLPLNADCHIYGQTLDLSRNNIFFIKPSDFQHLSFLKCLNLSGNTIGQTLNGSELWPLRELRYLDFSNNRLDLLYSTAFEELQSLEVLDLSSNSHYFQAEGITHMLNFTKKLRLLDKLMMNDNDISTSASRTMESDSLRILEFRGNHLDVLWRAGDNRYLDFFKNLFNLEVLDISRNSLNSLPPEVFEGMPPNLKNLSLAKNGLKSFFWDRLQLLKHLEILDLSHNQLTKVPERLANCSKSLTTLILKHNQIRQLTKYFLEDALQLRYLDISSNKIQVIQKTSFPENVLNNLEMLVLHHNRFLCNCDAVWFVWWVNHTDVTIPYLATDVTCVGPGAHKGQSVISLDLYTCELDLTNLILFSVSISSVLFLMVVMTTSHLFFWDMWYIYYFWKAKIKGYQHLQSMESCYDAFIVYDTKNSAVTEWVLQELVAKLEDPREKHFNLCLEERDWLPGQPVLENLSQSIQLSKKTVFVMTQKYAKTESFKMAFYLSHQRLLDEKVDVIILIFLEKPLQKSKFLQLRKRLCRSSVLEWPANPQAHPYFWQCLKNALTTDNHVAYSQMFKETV
As to the kind of experiment: flow cytometry on fixed and permeabilised HEK293 cells expressing mouse TLR7-Flag.
Excerpt: as §1, §2

B1: huAT01_H3L2_IgG1LALA antibody (antibody, V domains shown)
VH: QVQLVQSGAEVKKPGASVKVSCKASGYTFTNNWLHWVRQAPGQGLEWMGDIYPSNGRTNYAQKFQGRVTLTVDKSTSTAYMELSSLRSEDTAVYFCARERGYFDYWGQGTLVTVSS
VL: DIQMTQSPSSLSASVGDRVTITCKASQDINKYIAWYQQKPGKAPKLLIHYTSTLQPGIPSRFSGSGSGRDYTLTISSLQPEDFATYYCLQYDYLLTFGQGTKVEIKR
notes: Humanized AT01; heavy huAT01_H3_IgG1LALA, light huAT01_L2
For B1, the binding result in experiment [1] and in experiment [2] was “no binding” each time.

For the origin of these results see patent publication US20230212306A1 (Daiichi Sankyo, published 2023).
